Results taken from the supplement of paper PMC7877785.
± gives the uncertainty stated by the source.

Test: self-splicing fitness, log relative to wild type (ln ratio); higher = more splicing; Tetrahymena group I intron in knt gene, E. coli kanamycin selection, DiMSum; sequences stand for … in CUCUCU…GGAGGGAAAAGUUAUCAGGCAUGCACCUGGUAGCUAGUCUUUAAACCAAUAGAUUGCAUCGGUUUAAAAGGCAAGACCGUCAAAUUGCGGGAAAGGGGUCAACAGCCGUUCAGUACCAAGUCUCAGGGGAAACUUUGAGAUGGCCUUGCAAAGGGUAUGGUAAUAAGCUGACGGACAUGGUCCUAACCACGCAGCCAAGUCCUAAGUCAACAGAUCUUCUGUUGAUAUGGAUGCAGUUCACAGACUAAAUGUCGGUCGGGGAAGAUGUAUUCUUCUCAUAAGAUAUAGUCGGACCUCUCCUUAAUGGGAGCUAGCGGAUGAAGUGAUGCAACACUGGAGCCGCUGGGAACUAAUUUGUAUGCGAAAGUAUAUUGAUUAGUUUUGGAGUACUCGUGGUCG
Summary of the method: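 The eight P1ex-region nucleotides of an intron in the knt kanamycin-resistance gene on pET-22b(+) were all randomised and the library put into E. coli BL21(DE3). Six replicate transformations were grown overnight at 37°C or 30°C on LB agar with or without 25 μg/mL kanamycin, together with 100 μg/mL carbenicillin, 50 μM IPTG and 0.2% rhamnose. Colonies were pooled and amplicon-sequenced on an Illumina HiSeq 2500. Fitness from DiMSum is the error-weighted combination of wild-type-normalised replicate fold changes, kanamycin over none.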

| Sequence | self-splicing fitness (ln) (30 °C) | self-splicing fitness (ln) (37 °C) |
| --- | --- | --- |
| AUAGAGCAAUAUUACGGCAG | -2.15 ± 0.19 | -1.37 ± 0.16 |
| GAUCAGCAAUAUUACGAAAA | -0.449 ± 0.2 | -0.691 ± 0.23 |
| UACUAGCAAUAUUACGGCUA | -1.58 ± 0.12 | -0.671 ± 0.099 |
| AGAGAGCAAUAUUACGAUAU | -2.21 ± 0.47 | -2.2 ± 0.43 |
| CCCUAGCAAUAUUACGGUAA | -2.69 ± 0.21 | -3.02 ± 0.32 |
| GAACAGCAAUAUUACGCAUA | -0.914 ± 0.079 | -0.68 ± 0.094 |
| GGCAAGCAAUAUUACGUCUA | -0.593 ± 0.084 | 0.16 ± 0.085 |
| GGGUAGCAAUAUUACGCCUU | -1.56 ± 0.18 | -2.07 ± 0.21 |
| GCCAAGCAAUAUUACGAUCU | -1.94 ± 0.13 | -0.903 ± 0.098 |
| UCCCAGCAAUAUUACGACGC | -2.81 ± 0.19 | -0.519 ± 0.23 |
| GAACAGCAAUAUUACGUACG | -0.821 ± 0.081 | -0.0209 ± 0.11 |
| CAGUAGCAAUAUUACGCCAG | -0.7 ± 0.1 | -0.109 ± 0.15 |
| GGCGAGCAAUAUUACGAAGU | -2.81 ± 0.44 | -1.21 ± 0.19 |
| UCCAAGCAAUAUUACGGAAC |  | -3.52 ± 0.35 |
| CUGCAGCAAUAUUACGCCGG | -2.55 ± 0.19 | -1.56 ± 0.29 |
| CCAUAGCAAUAUUACGAUCU | -3.15 ± 0.34 | -2.96 ± 0.44 |
| UCACAGCAAUAUUACGAGAG | -3.55 ± 0.16 | -2.63 ± 0.19 |

| Sequence | self-splicing fitness (ln) (30 °C) | self-splicing fitness (ln) (37 °C) |
| --- | --- | --- |
| UGCCAGCAAUAUUACGGUCC | -0.84 ± 0.2 | 0.136 ± 0.2 |
| CCAUAGCAAUAUUACGUACC | -3.95 ± 0.47 | -2.21 ± 0.36 |
| AUUCAGCAAUAUUACGGGUA | -1.89 ± 0.11 | -1.31 ± 0.12 |
| UGUGAGCAAUAUUACGCAGC |  | -1.77 ± 0.4 |
| CUUAAGCAAUAUUACGCUGG | -4.54 ± 0.32 | -2.64 ± 0.18 |
| UUCUAGCAAUAUUACGCAGA | -2.04 ± 0.32 | -1.1 ± 0.23 |
| CCGAAGCAAUAUUACGAACG | -0.139 ± 0.077 | 0.554 ± 0.1 |
| CGAGAGCAAUAUUACGGCAC | -3.72 ± 0.3 | -2.36 ± 0.23 |
| AAUUAGCAAUAUUACGGCAC | -1.11 ± 0.16 | -0.154 ± 0.21 |
| UAUAAGCAAUAUUACGAUGC | -3.29 ± 0.36 | -2.63 ± 0.27 |
| CAGUAGCAAUAUUACGCGGG | -3.1 ± 0.16 | -1.91 ± 0.17 |
| GCGUAGCAAUAUUACGGCGG | -2.79 ± 0.19 | -1.36 ± 0.23 |
| CUUAAGCAAUAUUACGACAU | -3.434 ± 0.023 | -2.11 ± 0.036 |
| GGCGAGCAAUAUUACGAACG | -1.57 ± 0.078 | 0.152 ± 0.091 |
| CGUGAGCAAUAUUACGACGU | -2.12 ± 0.19 | -2.37 ± 0.18 |
| GACUAGCAAUAUUACGAGCG | -1.57 ± 0.1 | -0.592 ± 0.12 |
| CCUCAGCAAUAUUACGGCUU | -1.94 ± 0.16 | -2.28 ± 0.21 |
